Where “and” joins values, the source holds several entries; their conditions need not be identical. Identical values can stand only once.

Experimental findings from paper PMC5552956, “The PAS domains of the major sporulation kinase in Bacillus subtilis play a role in tetramer formation that is essential for the autokinase activity” (MicrobiologyOpen, 2017) are described below.

The target in data set [1] is PAS-BC-GFP-his6 (Bacillus subtilis). The data set is described as follows: native gel or EMSA; blue native PAGE (4-16% gradient gel) of Ni-NTA eluates, immunoblot with anti-GFP antibodies; sizes from a regression line of NativeMark standards. (In EMSA bound probe runs differently from free probe, usually more slowly.)
Data set [2] deals with KinAN-GFP-his6 (Bacillus subtilis). The description is as above.
In data set [3] the target is KinAN-GFP (Bacillus subtilis). The data set is described as follows: cross-linking; cell extracts of B. subtilis lacking native kinA (LB, 10 μmol/L IPTG) incubated with or without bis-maleimidohexane (BMH, sulfhydryl-specific); SDS-PAGE (10%), immunoblot with anti-GFP antibodies; sizes from a regression line of mass standards. A general note: In western blotting, separated proteins are transferred to a membrane and probed.

Data set [4] addresses KinA^ΔPAS-A-GFP (Bacillus subtilis). The description is as above.
Data set [5] deals with the molecule itself. The data set is described as above.

What is called stoichiometry N is a count of units in the complex or per binding partner. For the molecule PAS-BC-GFP-his6 (domain or fragment), the stoichiometry N in data set [1] is 4 and 2.
On to KinAN-GFP-his6 (domain or fragment), for which the stoichiometry N in data set [2] is 4 and 2.
For the molecule KinAN-GFP (domain or fragment), the stoichiometry N in data set [3] is 4.
The molecule KinA^ΔPAS-A-GFP (domain or fragment) gave a stoichiometry N in data set [4] of 4.

B1: full-length KinA-GFP (natural protein, Bacillus subtilis, UniProt P16497 1-606, looked up)
chain: MEQDTQHVKPLQTKTDIHAVLASNGRIIYISANSKLHLGYLQGEMIGSFLKTFLHEEDQFLVESYFYNEHHLMPCTFRFIKKDHTIVWVEAAVEIVTTRAERTEREIILKMKVLEEETGHQSLNCEKHEIEPASPESTTYITDDYERLVENLPSPLCISVKGKIVYVNSAMLSMLGAKSKDAIIGKSSYEFIEEEYHDIVKNRIIRMQKGMEVGMIEQTWKRLDGTPVHLEVKASPTVYKNQQAELLLLIDISSRKKFQTILQKSRERYQLLIQNSIDTIAVIHNGKWVFMNESGISLFEAATYEDLIGKNIYDQLHPCDHEDVKERIQNIAEQKTESEIVKQSWFTFQNRVIYTEMVCIPTTFFGEAAVQVILRDISERKQTEELMLKSEKLSIAGQLAAGIAHEIRNPLTAIKGFLQLMKPTMEGNEHYFDIVFSELSRIELILSELLMLAKPQQNAVKEYLNLKKLIGEVSALLETQANLNGIFIRTSYEKDSIYINGDQNQLKQVFINLIKNAVESMPDGGTVDIIITEDEHSVHVTVKDEGEGIPEKVLNRIGEPFLTTKEKGTGLGLMVTFNIIENHQGVIHVDSHPEKGTAFKISFPKK
notes: Sporulation kinase KinA, Bacillus subtilis (strains derived from PY79), full length; Tetramer by BMH cross-linking; also called MF3352; source: B. subtilis lacking the native kinA gene, IPTG-inducible promoter (10 μmol/L IPTG, LB), in cell extract
As for B1, the “stoichiometry N” value in data set [5] came to 4.

B2: KinA^ΔPAS-AB-GFP (domain or fragment, Bacillus subtilis, UniProt P16497 259-606, looked up)
chain: QTILQKSRERYQLLIQNSIDTIAVIHNGKWVFMNESGISLFEAATYEDLIGKNIYDQLHPCDHEDVKERIQNIAEQKTESEIVKQSWFTFQNRVIYTEMVCIPTTFFGEAAVQVILRDISERKQTEELMLKSEKLSIAGQLAAGIAHEIRNPLTAIKGFLQLMKPTMEGNEHYFDIVFSELSRIELILSELLMLAKPQQNAVKEYLNLKKLIGEVSALLETQANLNGIFIRTSYEKDSIYINGDQNQLKQVFINLIKNAVESMPDGGTVDIIITEDEHSVHVTVKDEGEGIPEKVLNRIGEPFLTTKEKGTGLGLMVTFNIIENHQGVIHVDSHPEKGTAFKISFPKK
notes: KinA of Bacillus subtilis without PAS-A and PAS-B; 'our autokinase-deficient PAS-AB mutant (aa 259-606)'; also called MF3356; source: B. subtilis lacking the native kinA gene, IPTG-inducible promoter (10 μmol/L IPTG, LB), in cell extract
With B2, in data set [5], the “stoichiometry N” value stood at 2.
